Measurements as given in US20150344583A1.

How the values were obtained:
[1] = biological target: recombinant soluble human BCMA (rhu BCMA), analyte of the Example 2 Biacore assay (human) (UniProt Q02223); experiment: SPR (BIAcore 3000), steady state fit, antibody captured, rhu BCMA as analyte
[2] = biological target: TACI on transiently transfected cells (human) (UniProt O14836); experiment: FACS, hu TACI
[3] = biological target: cynomolgus (Macaca fascicularis) BCMA on cells (cynomolgus (Macaca fascicularis)); experiment: FACS, Cyno BCMA
cynomolgus (Macaca fascicularis) BCMA on cells (cynomolgus (Macaca fascicularis)), sequence (Q02223 other isoform, or with tags, fused parts or gaps): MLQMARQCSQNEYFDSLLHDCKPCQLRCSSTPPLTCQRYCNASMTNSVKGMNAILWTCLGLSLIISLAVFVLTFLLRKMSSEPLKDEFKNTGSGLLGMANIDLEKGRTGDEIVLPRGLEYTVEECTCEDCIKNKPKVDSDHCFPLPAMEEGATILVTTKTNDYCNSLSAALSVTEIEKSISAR

[4] = biological target: human BCMA (huBCMA) on cells (human) (UniProt Q02223); experiment: FACS, hu BCMA
human BCMA (huBCMA) on cells (human), sequence (Q02223 whole entry N81S): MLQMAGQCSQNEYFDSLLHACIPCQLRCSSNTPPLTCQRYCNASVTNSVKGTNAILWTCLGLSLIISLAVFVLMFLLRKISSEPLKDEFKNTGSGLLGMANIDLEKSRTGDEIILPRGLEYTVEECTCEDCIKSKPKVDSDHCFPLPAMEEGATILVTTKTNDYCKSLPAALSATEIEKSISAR

[5] = biological target: cynomolgus (Macaca fascicularis) BCMA on cells (cynomolgus (Macaca fascicularis)); experiment: CynoBCMA O/N FACS
[6] = biological target: human BCMA (huBCMA) on cells (human) (UniProt Q02223); experiment: APRIL blocking

TACI on transiently transfected cells (human), sequence (O14836 whole entry): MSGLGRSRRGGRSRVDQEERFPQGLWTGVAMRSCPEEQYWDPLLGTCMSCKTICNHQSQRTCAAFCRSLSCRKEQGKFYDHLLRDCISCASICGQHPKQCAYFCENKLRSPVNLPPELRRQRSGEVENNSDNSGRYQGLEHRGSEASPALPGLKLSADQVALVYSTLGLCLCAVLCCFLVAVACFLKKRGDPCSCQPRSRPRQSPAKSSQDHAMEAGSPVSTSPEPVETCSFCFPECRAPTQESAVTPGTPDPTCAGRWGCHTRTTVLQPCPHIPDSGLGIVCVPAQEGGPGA
recombinant soluble human BCMA (rhu BCMA), analyte of the Example 2 Biacore assay (human), sequence (Q02223 1-54 limits assumed): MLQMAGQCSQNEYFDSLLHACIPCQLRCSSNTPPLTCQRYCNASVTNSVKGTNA

Binder | Kd [1] [nM] | MFI [2] [MFI] | MFI [3] [MFI] | MFI [4] [MFI] | MFI [5] [MFI] | % Inhibition n=1 [6] [%] | % Inhibition n=2 [6] [%] | Avg. % Inhibition [6] [%]
11F12 (antibody, from a related filing, IgG1, V domains shown) VH: QVQLVESGGGVVQPGRSLRLSCAASGFTFSSYGLHWVRQAPGKGLEWVALISYDGSNKYYADSVKGRFTISRDNSKNTLYLQMNSLRAEDTAVYYCWYSSSWTPLDYWGQGTLVTVSS VL: DIQMTQSPSSLSASVGDRVTITCRASQGIRNDLGWYQQKPGKAPKRLIYAASSLQSGVPSRFSGSGSGTEFTLTISSLQPEDFATYYCLQYYSYPLTFGGGTKVEIKR | 36.1 | – | – | – | – | – | – | –
33C7 (antibody, from a related filing, V domains shown) VH: EVQLLESGGALVQPGGSLRLSCAASGFTFSSYAMNWVRQAPGKGLEWVSAISVGGDTYYADSVKGRFTISRDNSKNTLYLHVNSLSAEDSAVYYCAKDQVTLVRGVWYYYGLDVWGQGTTVTVSS VL: VIVLIQSPLSLPVTPGEPASISCRSSQSLLHSNGNNYLDWYLQKPGQSPHLLISLGSNRTSGVPDRFSGSGSGTDFTLKISRVEAEDVGFYYCMQALQPPRRFGQGTKLEIKR | – | 1890 | 238000 | 132000 | 109 | 68 | 88 | 78
